Test results published in the supplement of paper PMC7877785.
± gives the uncertainty stated by the source.

Test: self-splicing fitness, log relative to wild type (ln ratio); higher = more splicing; Tetrahymena group I intron in knt gene, E. coli kanamycin selection, DiMSum; sequences stand for … in CUCUCU…GGAGGGAAAAGUUAUCAGGCAUGCACCUGGUAGCUAGUCUUUAAACCAAUAGAUUGCAUCGGUUUAAAAGGCAAGACCGUCAAAUUGCGGGAAAGGGGUCAACAGCCGUUCAGUACCAAGUCUCAGGGGAAACUUUGAGAUGGCCUUGCAAAGGGUAUGGUAAUAAGCUGACGGACAUGGUCCUAACCACGCAGCCAAGUCCUAAGUCAACAGAUCUUCUGUUGAUAUGGAUGCAGUUCACAGACUAAAUGUCGGUCGGGGAAGAUGUAUUCUUCUCAUAAGAUAUAGUCGGACCUCUCCUUAAUGGGAGCUAGCGGAUGAAGUGAUGCAACACUGGAGCCGCUGGGAACUAAUUUGUAUGCGAAAGUAUAUUGAUUAGUUUUGGAGUACUCGUGGUCG
Method in brief: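 The eight P1ex-region nucleotides of an intron in the knt kanamycin-resistance gene on pET-22b(+) were all randomised and the library put into E. coli BL21(DE3). Six replicate transformations were grown overnight at 37°C or 30°C on LB agar with or without 25 μg/mL kanamycin, together with 100 μg/mL carbenicillin, 50 μM IPTG and 0.2% rhamnose. Colonies were pooled and amplicon-sequenced on an Illumina HiSeq 2500. Fitness from DiMSum is the error-weighted combination of wild-type-normalised replicate fold changes, kanamycin over none.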

Row | Sequence | self-splicing fitness (ln) (30 °C) | self-splicing fitness (ln) (37 °C)
1 | CAGGAGCAAUAUUACGGUUA | -3.1 ± 0.37 | -3.41 ± 0.4
2 | CAGGAGCAAUAUUACGUAGC |  | -2.7 ± 0.36
3 | CAGGAGCAAUAUUACGUCUA | -1.43 ± 0.13 | -1.68 ± 0.14
4 | CAGGAGCAAUAUUACGUGAC | -2.45 ± 0.19 | 
5 | CAGGAGCAAUAUUACGUUUG | -3.14 ± 0.14 | -1.43 ± 0.14
6 | CAGUAGCAAUAUUACGAAUC | -3.49 ± 0.33 | 
7 | CAGUAGCAAUAUUACGAGCC | -3.88 ± 0.37 | -3.14 ± 0.47
8 | CAGUAGCAAUAUUACGAGGA | -3.13 ± 0.24 | -1.77 ± 0.2
9 | CAGUAGCAAUAUUACGAGGC | -3.19 ± 0.17 | -2.94 ± 0.3
10 | CAGUAGCAAUAUUACGAGUC | -4.27 ± 0.27 | -2.36 ± 0.17
11 | CAGUAGCAAUAUUACGAUUU | -2.52 ± 0.19 | -1.45 ± 0.17
12 | CAGUAGCAAUAUUACGCAUC |  | -1.82 ± 0.26
13 | CAGUAGCAAUAUUACGCCGG | -0.444 ± 0.21 | -0.309 ± 0.28
14 | CAGUAGCAAUAUUACGCGCG | -0.327 ± 0.16 | 0.324 ± 0.18
15 | CAGUAGCAAUAUUACGCGGC | -2.92 ± 0.32 | -2.14 ± 0.5
16 | CAGUAGCAAUAUUACGCGGU | -2.74 ± 0.12 | -2.94 ± 0.19
17 | CAGUAGCAAUAUUACGCUAC | -4.2 ± 0.3 | -2.7 ± 0.23
18 | CAGUAGCAAUAUUACGCUUC | -3.45 ± 0.3 | -2.74 ± 0.28
19 | CAGUAGCAAUAUUACGGAGC |  | -1.75 ± 0.33
20 | CAGUAGCAAUAUUACGGCAG | -0.259 ± 0.073 | 0.0185 ± 0.1
21 | CAGUAGCAAUAUUACGGCCG | -0.034 ± 0.13 | 0.348 ± 0.2
22 | CAGUAGCAAUAUUACGGGAC | -4.57 ± 0.28 | -3.56 ± 0.2
23 | CAGUAGCAAUAUUACGGGGC | -2.54 ± 0.15 | -2.55 ± 0.23
24 | CAGUAGCAAUAUUACGGUAA | -3.19 ± 0.31 | -1.57 ± 0.22
25 | CAGUAGCAAUAUUACGUCCU | -3.2 ± 0.18 | -1.43 ± 0.14

Row | Sequence | self-splicing fitness (ln) (30 °C) | self-splicing fitness (ln) (37 °C)
26 | CAGUAGCAAUAUUACGUGGU | -2.56 ± 0.13 | -2.54 ± 0.17
27 | CAGUAGCAAUAUUACGUUUG | -1.35 ± 0.08 | -0.625 ± 0.11
28 | CAUAAGCAAUAUUACGAAUU | -3.44 ± 0.27 | -1.52 ± 0.22
29 | CAUAAGCAAUAUUACGACAC | -2.18 ± 0.15 | -2.12 ± 0.27
30 | CAUAAGCAAUAUUACGACCA |  | -2.1 ± 0.36
31 | CAUAAGCAAUAUUACGACUU | -3.55 ± 0.24 | -1.5 ± 0.16
32 | CAUAAGCAAUAUUACGAGAU | -3.53 ± 0.15 | -3.51 ± 0.23
33 | CAUAAGCAAUAUUACGAUAU | -3.41 ± 0.28 | -2.86 ± 0.32
34 | CAUAAGCAAUAUUACGGAAG | -1.43 ± 0.075 | -0.578 ± 0.096
35 | CAUAAGCAAUAUUACGGAGG | -2.3 ± 0.11 | -0.959 ± 0.13
36 | CAUAAGCAAUAUUACGUAUU | -3.24 ± 0.19 | -3.09 ± 0.19
37 | CAUAAGCAAUAUUACGUCAA | -3.33 ± 0.27 | -2.61 ± 0.3
38 | CAUAAGCAAUAUUACGUCCA | -3.32 ± 0.33 | -1.87 ± 0.22
39 | CAUAAGCAAUAUUACGUCGA | -3.41 ± 0.26 | -2.86 ± 0.17
40 | CAUAAGCAAUAUUACGUCUG | -0.477 ± 0.065 | -0.45 ± 0.082
41 | CAUAAGCAAUAUUACGUCUU | -3.71 ± 0.17 | -2.41 ± 0.19
42 | CAUCAGCAAUAUUACGAAAG | -0.638 ± 0.065 | -0.249 ± 0.087
43 | CAUCAGCAAUAUUACGAAGG | -0.555 ± 0.048 | -0.58 ± 0.066
44 | CAUCAGCAAUAUUACGAAUC | -1.97 ± 0.13 | -1.25 ± 0.12
45 | CAUCAGCAAUAUUACGACAC | -1.78 ± 0.21 | -3.05 ± 0.37
46 | CAUCAGCAAUAUUACGACAG | 0.0306 ± 0.087 | 0.00869 ± 0.13
47 | CAUCAGCAAUAUUACGACUC | -1.82 ± 0.26 | -0.687 ± 0.23
48 | CAUCAGCAAUAUUACGAGUG | -2.26 ± 0.11 | -0.515 ± 0.1
49 | CAUCAGCAAUAUUACGAGUU | -4.08 ± 0.19 | -2.53 ± 0.12
